The source of these data is PMC4191155, “FaPOD27 functions in the metabolism of polyphenols in strawberry fruit (Fragaria sp.)” (Frontiers in Plant Science, 2014).

One data set has as its target T1, FaPOD27 (Fragaria x ananassa, UniProt J7IER7).
T1 construct: GST fusion, E. coli, crude protein
T1 sequence (J7IER7 1-329): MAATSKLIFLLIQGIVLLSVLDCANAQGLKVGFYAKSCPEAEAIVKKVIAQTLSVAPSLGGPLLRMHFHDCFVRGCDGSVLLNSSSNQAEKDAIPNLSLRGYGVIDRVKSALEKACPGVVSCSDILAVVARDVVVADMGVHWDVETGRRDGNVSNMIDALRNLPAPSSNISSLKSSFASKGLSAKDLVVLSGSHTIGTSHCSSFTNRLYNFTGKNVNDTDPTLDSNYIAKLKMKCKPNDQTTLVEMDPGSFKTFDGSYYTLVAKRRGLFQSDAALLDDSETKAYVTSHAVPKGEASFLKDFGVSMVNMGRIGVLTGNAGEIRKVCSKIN
Put plainly: LC-UV-ESI-MSn product identification. The data set is classed as biochemical. To be noted: H2O2, sodium tartrate pH 3.5, room temperature; crude E. coli protein.

A further data set deals with T2, FaCAD (Fragaria x ananassa, UniProt J7IAL0).
T2 construct: full-length ORF 1077 bp, 359 aa, 39 kDa; pYES2 in S. cerevisiae INVSc1, crude protein
T2 sequence (J7IAL0 1-359): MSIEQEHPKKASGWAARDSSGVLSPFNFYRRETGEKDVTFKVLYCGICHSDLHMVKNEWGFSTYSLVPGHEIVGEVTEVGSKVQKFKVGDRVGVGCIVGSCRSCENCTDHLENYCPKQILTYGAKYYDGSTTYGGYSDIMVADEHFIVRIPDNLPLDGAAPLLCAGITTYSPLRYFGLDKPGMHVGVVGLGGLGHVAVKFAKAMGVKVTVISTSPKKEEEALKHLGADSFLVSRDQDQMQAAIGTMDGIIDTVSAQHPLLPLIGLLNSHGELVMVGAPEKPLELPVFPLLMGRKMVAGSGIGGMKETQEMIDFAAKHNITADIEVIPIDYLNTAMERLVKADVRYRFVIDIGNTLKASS
Put plainly: LC-UV-ESI-MSn product identification. The format is biochemical. To be noted: NADPH 200 μM, coniferaldehyde 100 μM, sodium phosphate pH 6.5, 30 °C; crude yeast protein.

Substrate in data set [1]: CC(C)(COP(=O)(O)OP(=O)(O)OC[C@H]1O[C@@H](n2cnc3c(N)ncnc32)[C@H](O)[C@@H]1OP(=O)(O)O)[C@@H](O)C(=O)NCCC(=O)NCCSC(=O)/C=C/c1ccc(O)cc1
Put plainly: spectrophotometric CCR assay. The format is biochemical, Fragaria x ananassa. To be noted: NADPH, sodium phosphate, pH optimum 6, 25 °C, apparent Km. The source says:
(§1) spectrophotometric CCR assay on GST-FaCCR

Substrate in data set [2]: CC(C)(COP(=O)(O)OP(=O)(O)OC[C@H]1O[C@@H](n2cnc3c(N)ncnc32)[C@H](O)[C@@H]1OP(=O)(O)O)[C@@H](O)C(=O)NCCC(=O)NCCSC(=O)/C=C/c1ccc(O)c(O)c1
Put plainly: spectrophotometric CCR assay. To be noted: NADPH, sodium phosphate, pH optimum 6, 25 °C, apparent Km. The format is biochemical, Fragaria x ananassa.
Source text: as §1

Substrate in data set [3]: COc1cc(/C=C/C(=O)SCCNC(=O)CCNC(=O)[C@H](O)C(C)(C)COP(=O)(O)OP(=O)(O)OC[C@H]2O[C@@H](n3cnc4c(N)ncnc43)[C@H](O)[C@@H]2OP(=O)(O)O)ccc1O
Put plainly: spectrophotometric CCR assay. To be noted: NADPH, sodium phosphate, pH optimum 6, 25 °C, apparent Km. The format is biochemical, Fragaria x ananassa.
Source text: as §1

Consider `COc1cc(/C=C/CO)ccc1O` [coniferyl alcohol], for which the LC-UV-ESI-MSn product identification result on FaPOD27 is “ferulic acid and coniferyl alcohol were almost completely oxidized in the presence of H2O2”.

Turning to `COc1cc(/C=C/C=O)ccc1O` [coniferaldehyde], the LC-UV-ESI-MSn product identification entry on FaCAD was “FaCAD was expressed in yeast cells and showed that coniferyl alcohol was generated”.

Take `COc1cc(/C=C/C(=O)O)ccc1O` [ferulic acid]: on FaPOD27, the LC-UV-ESI-MSn product identification entry was “ferulic acid and coniferyl alcohol were almost completely oxidized in the presence of H2O2”.

B1: GST-FaCCR (Fragaria x ananassa) (protein)
chain: MPVDNCSSLSGHGQTVCVTGAGGFFASWLVKLLLERGYNVRGTVRNPEDPKNAHLRELEGAKERLSLRKADLLDFESLKEAINGCDGVFHTASPVTDDPEQMVEPAVNGTKNVIVAAAEAKVKRVVFTSSIGAVYMDPARGPDVVVDESCWSDLEFCKNTKNWYCYGKAVAEQAAWEEAKERGVDLVVVNPVLVLGPLLQPTINASIIHILKYLTGSAKTYANSVQAYVHVKDVALAHILVYETPSASGRYLCAESVLHRGDVVEILAKFFPEYPIPSKLKDDGKPRAIPYKFSNQKLQDLGLEFTSVKQSLYDTVKSLQEKGHLKVPTKQEEDSFKIQ
Usually Km stands for the concentration of substrate that gives half-maximal velocity. In general, kcat/Km refers to the turnover number divided by the Michaelis constant. For B1, the figures for the Km in data set [1], in data set [2] and in data set [3] were 24.75 ± 1.23 µM, 25.48 ± 0.82 µM and 16.11 ± 1.39 µM, respectively. The figures for the kcat/Km in data set [1], in data set [2] and in data set [3] were 1.07 M⁻¹ s⁻¹, 1.15 M⁻¹ s⁻¹ and 145 M⁻¹ s⁻¹, respectively.
